Biological target: full-length Titin N2B unique sequence (N2B-us) single-molecule construct, 6His-Avi-2I27-N2B-2I27-Spy (human)
Test: magnetic tweezers single-molecule manipulation; full-length N2B-us tether; jump to 8 pN procedure: 1 pN for 10 s, 8 pN for 20 s, back to 1 pN; bead height difference at 1 pN; 200 nM FHL2; five tethers

Chain of full-length Titin N2B unique sequence (N2B-us) single-molecule construct, 6His-Avi-2I27-N2B-2I27-Spy (human) (Q8WZ42 3717-4288): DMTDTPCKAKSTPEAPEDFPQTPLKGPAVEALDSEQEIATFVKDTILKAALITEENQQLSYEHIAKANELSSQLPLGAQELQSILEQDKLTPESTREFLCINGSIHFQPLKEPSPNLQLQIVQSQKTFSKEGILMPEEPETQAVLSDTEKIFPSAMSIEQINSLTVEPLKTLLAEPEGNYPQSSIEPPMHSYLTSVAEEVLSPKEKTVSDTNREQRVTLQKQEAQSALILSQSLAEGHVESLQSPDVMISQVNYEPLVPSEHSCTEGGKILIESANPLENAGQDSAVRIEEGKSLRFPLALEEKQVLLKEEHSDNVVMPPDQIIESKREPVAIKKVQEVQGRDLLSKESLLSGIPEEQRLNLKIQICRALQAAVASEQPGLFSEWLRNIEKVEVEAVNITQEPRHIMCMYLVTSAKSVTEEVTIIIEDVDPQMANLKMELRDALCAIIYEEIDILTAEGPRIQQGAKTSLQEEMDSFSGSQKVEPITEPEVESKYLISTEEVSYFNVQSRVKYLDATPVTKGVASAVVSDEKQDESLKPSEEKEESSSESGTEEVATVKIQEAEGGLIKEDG

Substance: Recombinant GST-FHL2 protein (four-and-a-half LIM domain protein 2) (natural protein)
- average extension difference at 1 pN before and after 20 s at 8 pN, with 200 nM FHL2: 10 nm

— publication PMC11530556
